Source: patent US20240309050A1

Tests used:
[1] = molecular target: gHgL antigen protein of EB virus (EB virus (M81 strain)); experiment: BLI (Octet), AMMO1 on protein A sensor, antigen (row label gHgL) in solution 3.125-200 nM, 1:1 fit
[2] = molecular target: gHgL-I53-50A1 subunit (EB virus (M81 strain) for the gH and gL parts); experiment: BLI (Octet), AMMO1 on protein A sensor, antigen (row label gHgL-I53-50A1) in solution 3.125-200 nM, 1:1 fit
[3] = molecular target: gHgL-I53-50 NP self-assembled nanoparticle (EB virus (M81 strain) for the gH and gL parts); experiment: BLI (Octet), AMMO1 on protein A sensor, antigen (row label gHgL-I53-50 NP) in solution 3.125-200 nM, 1:1 fit

## neutralizing antibody AMMO1
[1]
  Kd: 0.432 nM
[2]
  Kd: 0.242 nM
[3]
  Kd: 0.0339 nM
